From the nanobody polyreactivity screen of Harvey et al. (2022)

Assay: yeast display, Sf9 membrane polyspecificity reagent, FACS + sequencing; frameworks hold sequencing errors
Summary of the method: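 Galactose induction of a Saccharomyces cerevisiae BJ5465 synthetic nanobody display library ran 36–48 hours. The cells were then stained for 1 hour at 4 °C with 10% biotinylated, detergent-solubilized Sf9 membrane reagent, pulled down on streptavidin microbeads and FACS-sorted into low and high (top ~1%) gates on expression and reagent-binding fluorescence. Labels for polyreactivity follow the gate of origin.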

Row | Sequence | polyreactivity (PSR sort gate)
1 | QVQLVESGGGLVQAGGSLRLSCAASGRTFKNYAMGWYRQAPGKERELVAAITSGGITNYADSVKGRFTISRDNAKNTVYLQMNSLKPEDTAVYYCNTRRGWRDFDYWGQGTQVTVSS | low polyreactivity
2 | QVQLVESGGGLVQAGGSLRLSCAACGSTFYVNTMGWYRQAPGKERELVAAITDSGVGTYADSVKGRFTISRDNAKNTVYLQMNSLKPEDTAVYYCNADGRYYDDETYDYWGQGTQVTVSS | low polyreactivity
3 | QVQLVESGGGLVQAGGSLRLSCAASGSIFDYNTMGWYRQAPGKEREFVAAISSSGGGTSYADSVKGRFTISRDNAKNTVYLQMNSLKPEDTAVYYCAALIKLTPYQRQYWKYRAYYYWGQGSQVTVSS | high polyreactivity
4 | QVQLVESGGGLVQAGGSLRLSCAASGGTFYIYVMGWYRQAPGKERELVAAITSGDSTNYADSVKGRFTISRDNAKNTVYLQMNSLKPEDTAVYYCATGYWELRYDYWGQGTQVTVSS | low polyreactivity
5 | QDQLVESGGGLVQAGGSLSLSCAASGSTFPYYAMGWSRPAPGKERELVAAISGSGGTTYYADSVKGRFTISRDNAKNTVYLQMNSLKPEDTAVYYCAVDIGVGYGYYYWGQGTQVTVSS | low polyreactivity
6 | QVQLVESGGGLVQAGGSLRLSCAASGRTFLYNAMGWYRQAHGKERELVAAIDQSGGSTYYADSVKGRFTISRDNAKNTVYLQMNSLKPEDTAVYYCAAYWEGSWYYKKYYYWGQGTQVTVSS | high polyreactivity
7 | QVQLVESGGGLVQAGGSLRISCAASGRTFDINAMGWYSPAPGKERELVAAISSRGGTTFYADSVKGRFTISRDNAKNTVYLKMNSLKPEDSAVYYCAAVTSYYYTEEDYWGQGTQVTVSS | low polyreactivity
8 | QVQLVESGGGLVQAGGSLRLSCAASGRIRFNVMGWYRQAPGKERELVAAITGGGTTYYADSVKGRFTISRDNAKNTVYLQMNSLKPEDTAVYYCAARALYSRINQIPSYYWGQGTQVTVSS | high polyreactivity
9 | QVQLVESGGGLVQAGGSLRLSCAASGRTFYRNAMGWYRQAPGKERELVAAISQRGGRTYYADSVKGRFTISRDNAKNTVYLQMNSLKPEDTAVYYCAASPIYPVYRRHGYWGQGTQVTVSS | high polyreactivity
10 | QVQLVESAGGLVQAGGSLSLSCAASGSIFWSYAMGWYRQAPGKERELVAVINWSGGSTYYADSVKGRFTISRDNAKNTVYLQMNSLKPEDTAVYYCNKDLGPTKRPFTFDYWGQGTQVTVSS | low polyreactivity
11 | QVQLVESGGCLFQAGGSLRLSCAASGSTFYWYTMGWYRQAHGKERELVSTMTTVGRTNYADSVKGRFTISRDNAKNTVYLQMKSLKPEVTAVYYCAASKARWPRGGCKYYYWRQGTQVTVSS | high polyreactivity
12 | QVQLVESGGGLVQAGGSLRLSCAASGSIFRGNAMGWYRQAPGKERELVAAITRSGGRTYYADTVKGRFTISRDNAKNTVYLHMNSLKPEDTAVYYCAAEYYTRLGYWGQGTQVTVSS | high polyreactivity
13 | QVQLVESGGGLVQAGGSLRLSCAASGFTFPGYAMGWYRQAPGNEREFVAAITWSGGRTYYADSVKGRFTISRDNAKNTVYLQMNSLKPEDTAVYYCAAVYRGTWYDYDYWGQGTQVTVSS | high polyreactivity
14 | QGQLVESGGGLVQAGGSLRLSCAASGFTFVYNAMGWYRQAPGKERELVAAITSGGNTYYADSVKGRFTISRDNAKNTVYLQMNSLKPEDTAVYYCAALSYYRFSQEDDYWGQGTQVTVSS | high polyreactivity
15 | QVQLVESGGGLVQAGGSLRLSCAASGSILNNYAMGWYRQAPGKERELVAAISSSGGTNYADSVKGRFKISRDNAKNTVYLQMNSLKPEDTAVYYCAKESLYQYDYWGQGTQVTVSS | low polyreactivity
16 | QLQHVESGGGLVQAGGSLRLSCAASGYIFPVNAMGSYRQAPGKERELVASLTSGGSTYYADSVKGRFTISRDNAKNTVYLQMNSLKPEDTAVYYCAAQLGYAKPYVYGEWYYYWGQGNQVTVSS | low polyreactivity
17 | QVQLVESGGGLVQAGGSLRLSCAASGRTFGGNAMGWYRQAPGKERELVAAITGRGGSTYYADSVKGRFTISRDNAKNTVYLQMNSLKAEDTAVYYCAKQFKRGYGYDYWGQCTQVTVSS | low polyreactivity
18 | QVQLVESGGGLVQAGGRLRLSCAASGSTFIGNAMGWYRQAPGKERELVAAISRTGGSTYADSVKGRFTISRDNAKNTVYLQMNSLKPEDTAVYYCAAKYYYLYYYWGQGTQVTVSS | high polyreactivity
19 | QVQLVESGGGLVQAGGSLRLSCAASGSIFYWYDMGWYRQAPGKERELVAAITNDGDSTYYADSVKGRFTISRDNAKNTVYLQMNSLKPEDTAVYYCAADVLFYYEYGSWGQGTQVTVSS | low polyreactivity
20 | QVQLVESGGGLVQAGGSLRLSCAASGSTFYVYVMGWYRQAPGKERELVAAISRSGGRTYYADSVKGRFTISRDNAKNTVYLQMNSLKPEDTSGYYCNARGSRRGGPGYEYWGQGTQVTVSS | high polyreactivity
21 | QVQLVESGGGLVQAGGSLRLSCAASGRTFLYNAMGWYRQAPGKERELVAAISWSGGSTYYADSVKGRFTISRDNAKNTVYLQMIILKPEDTAVYYCAATGRRSGFYYWGQGTQVTVSS | high polyreactivity

Row | Sequence | polyreactivity (PSR sort gate)
22 | QVQLVESGGGLVQAGGSLRLSCAASGSIFVNYAMGWYRQAPGKERELVAAITSRGTRTYYADSVKGRFTISRDNAKNTVYLQMNSLKPEDTAVYYCAAKQVSRGVAAYDYWGQGTQVTVSS | high polyreactivity
23 | QVQLVESGGGLVQAGGSIRLSCAASGSTFLIKAMGWYRQAPGKERELDASINRRGTSTFYADSVKARFTISRDNAKNTVYLQMNSLKPDDTAVYYCNAYPGAAIRSTGRYDYWGQGTQVTVSS | low polyreactivity
24 | QVQLVESGGGLVQAGGSLRLSCAASGRIFIYYARGWYRQAPGKERELVAAISGGGGRTYYADSVKGRFTISRDNAKNTVYLQMNSLKPEDTAVYYCAAGVYTGQDEYDYWGQGTQVTVSS | low polyreactivity
25 | QVQLVESGGGLVQAGGSLRLSCAASGRTFHKYAMGWYRQAPGKEWELVAAISNGGRTYYADSVKGRFTISRDNAKNTVYLQMNSLKPEDTAVYYCNADRTWKGRQYDYWGQGTQVTVSS | high polyreactivity
26 | QVQLVESGGGLVQAGGSLRLSCAASGRTFVVNAMGWYRQAPGKEREFVAAISYRGDSTYYADSVKGRFTISRDNAKNTVYLQMNSLKPEDTAVYYCAAQYRYGRYTRDYWGQGTQVTVSS | high polyreactivity
27 | QVQLVESGGGLVQAGGSLRLSCAASGLTFYYYAMGWYRQAPGKERQLVAAISRSGGSTYYADSVKGRFTISRDNAKNTVYLQMNSLKPEDTAVYYCAAREPYEGQRYYYEYYYWGQGTQVTVSS | high polyreactivity
28 | QVQLVESGGGLVQAGGSLRLSCAASGSTFGGNAMGWYRQAPGKERELVAAISRSGTTTYYADSVKGRFTISRDNAKNTVYLQMNSLKPEDTAVYYCAADYVRSQYDYWGQGTQVTVSS | high polyreactivity
29 | QVQLVESGGGLVQAGGSLRLSCAASGSTFSGYDRGWYRQEPGKESEFVATITYSGGSTYYADSVKGRFTISRDNAKNTVYLQMNSLKPEDTAVYYCAADTPDAPDYSGLYYWGQGTQVTVSS | low polyreactivity
30 | QVQLVESGGGLVQAGGSLRLSCAASGSIFNYNMGWYRQAPGKERELVAAITSSGGSTYYADSVKGRFTISRDNAKNTVYLQMNSLKPEDTAVYYCAAPISRSAGWDSYDYWGQGTQVTVSS | low polyreactivity
31 | QVQLVESGGGLVQAGGSLRLSCAASGNIFGYYAMGWYRQAPGKERELVAAIRTRGGRTYYADSVKGRFTISRDNAKNTVYLQMNSLKPEDTAVYYCAARSIAGFWRYDYWGQGTQVTVSS | high polyreactivity
32 | QVQLVESGGGLVQAGGSLRLSCAASGRIFYYYAMGGYRQAPWKERELVATISRAGITNYADSVKGRFTISRANAKNTVYLQMNSLKPEDTAVYYCAATFYPWRYHYEYWGQGTQVTVSS | high polyreactivity
33 | QVQLVESGGGLVQAGGSLRLSCAASGITFPYYAMGWYRQAPGKERELVAAISSSGGSTYYADSVKGRFTISRDNAKNTVYLQMNSLKPEDTAVYYCAAQRYINYDYWGQGTQVTVSS | high polyreactivity
34 | QVQLVESGGGLVQAGASLRLSCAASGFIFNQYAMGWYRQAPGKERELVAGITWRGGRTYYADSVKGRFTISRDNAKNTVYLQMNSLKPEDTAVYYCAADVAHYNGGEYYYWGQGTQVTVSS | high polyreactivity
35 | QVQLVESGGGLVQAGGSLRLSCAASGSIFDEYAMGWYRQAPGKERELVAAITYSGGDTYYADSVKGRFTISRDNAKNTVYLQMNSLKPEDTAVYYCAVDTPLEYYHQQAYVAGEYWGQGTQVTVSS | low polyreactivity
36 | QVHLVESGGGLVKAGGSLRLSCAASGLTFYVYTMGWYRQAPGKERELVAVISSGDSTYYADSVKGRFTISRDNAKNTVYLQMNSLKPEDTAVYYCAAGTHYLIVRYGLYDYWGQGTQVYVSS | low polyreactivity
37 | QVQLVESGGGLVQAGGSLRLSCAASGSIFVTYAMGWYRQAPGKERELVAAISTSGGSTYADSVKGRFTISRDNAKNTVYLQMNSLKPEDTAVYYCNADDPGYAVPWYWFKYDYWGQGTQVTGSS | low polyreactivity
38 | QVQLVESGGVLVQAGGSLRLSCAASGRTFHDYAMGWYRQAPGKERELVASISSGGSTYYADSVKGRFTISRDNAKNTDYLQMNSLKPEDTAVYYCAAYYYYTLYYRYDYWGQGTQVNVSS | low polyreactivity
39 | QVQLVEAGGGLVQAGGSLRLSCAASGITYSKYANGWYIQAPWKERELVAAISQRGGSTYYADSVKGRFTISRDNAKNTVYLQMNSLKPEDTAVYYCNAEFYWSIIAYEYWGQGTQVTVSS | high polyreactivity
40 | QVQLVESGGGLVQAGGSLRLSCAASGNTFTKYAMGWYRQAPGKERELVADITIGGSTYYADSVKGRFTISRDNAKNTVYLQMNSLKPEDTAVYYCNADVVVQYYFTYYRVFTYDYWGQGTQVTVSS | low polyreactivity
41 | QVQLVESGGGLVQAGGSLRLSCAASGIIFREYAMGWYRQAPGKERELVAAISKSGGSTYYADSVKGRFTISRDNAKNTVYLQMNSLKPEDTAVYYCAARLGTFSIPMYYWGQGTQVTVSS | high polyreactivity
